± gives the standard deviation of the averaged measurements.
Tested on: ATP
Assay: switch fluorescence ratio, 500 uM ATP over buffer (Cy3 cluster intensity, sum of 5 cycles each) (fold (ratio)); higher = stronger signal-on switching upon ATP binding; sequences stand for … in TCGTCGGCAGCGTCAGATGTGTATAAGAGACAGTTTTTTTTTTTTTTTTTTTTTTTTT…TC
Conditions: aptamer strand: ATP DNA aptamer (quencher-CACCTGGGGGAGTATTGCGGAGGAAGG + anchor), 100 nM annealed; ATP concentration: 500 uM
Procedure, shortened: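 Cy3-labelled switching-strand clusters on a modified Illumina MiSeq flow-cell were annealed to 100 nM quencher-labelled ATP aptamer and imaged first in selection buffer, then after 15 min with 500 uM ATP at 22 °C. NaOH stripping and re-annealing separated each of five buffer/ATP cycles, and clusters outside 100-1000 RFU were excluded. The fluorescence ratio sums target-cycle Cy3 intensity over buffer-cycle Cy3 intensity per cluster and averages it per switch-domain sequence.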
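Further: ATP exposure 15 min at 22 °C before imaging.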

## GGGTTGAGTG
  switch fluorescence ratio: 0.982 ± 0.028

## GGGTTGATGA
  switch fluorescence ratio: 1.012 ± 0.0093

## GGGTTGCACG
  switch fluorescence ratio: 0.9936 ± 0.0015

## GGGTTGCGGA
  switch fluorescence ratio: 0.966 ± 0.035

## GGGTTGCGTA
  switch fluorescence ratio: 1.006 ± 0.0027

## GGGTTGGACG
  switch fluorescence ratio: 1.02 ± 0.053

## GGGTTGGATG
  switch fluorescence ratio: 0.996 ± 0.025

## GGGTTGGGCT
  switch fluorescence ratio: 1 ± 0.03

## GGGTTGGTCG
  switch fluorescence ratio: 0.955 ± 0.016

## GGGTTGGTGG
  switch fluorescence ratio: 0.992 ± 0.029

## GGGTTGGTTT
  switch fluorescence ratio: 1.0207 ± 0.00021

## GGGTTGTAAG
  switch fluorescence ratio: 0.986 ± 0.013

## GGGTTGTCGA
  switch fluorescence ratio: 0.952 ± 0.011

## GGGTTTAATG
  switch fluorescence ratio: 0.96 ± 0.016

## GGGTTTAGAA
  switch fluorescence ratio: 0.979 ± 0.049

## GGGTTTAGAG
  switch fluorescence ratio: 0.9877 ± 0.0093

## GGGTTTAGTA
  switch fluorescence ratio: 0.998 ± 0.02

## GGGTTTATGG
  switch fluorescence ratio: 0.987 ± 0.056

## GGGTTTCAAG
  switch fluorescence ratio: 1.05 ± 0.04

## GGGTTTGAA
  switch fluorescence ratio: 0.988 ± 0.021

## GGGTTTGACT
  switch fluorescence ratio: 0.998 ± 0.031

## GGGTTTGGAA
  switch fluorescence ratio: 0.961 ± 0.027

## GGGTTTGGAT
  switch fluorescence ratio: 0.984 ± 0.025

## GGGTTTGGTT
  switch fluorescence ratio: 0.976 ± 0.041

## GGGTTTGTAT
  switch fluorescence ratio: 0.979 ± 0.046

## GGGTTTGTCA
  switch fluorescence ratio: 1.02 ± 0.029

## GGGTTTTAAC
  switch fluorescence ratio: 0.9798 ± 0.0034

## GGGTTTTAGG
  switch fluorescence ratio: 0.999 ± 0.032

## GGGTTTTAGT
  switch fluorescence ratio: 1.01 ± 0.029

## GGGTTTTATA
  switch fluorescence ratio: 1.016 ± 0.01

## GGGTTTTGCT
  switch fluorescence ratio: 0.955 ± 0.028

## GGGTTTTGTG
  switch fluorescence ratio: 1.01 ± 0.022

## GGGTTTTTGT
  switch fluorescence ratio: 1.04 ± 0.055

## GGTAAAGGGA
  switch fluorescence ratio: 1.01 ± 0.036

## GGTAAAGGTT
  switch fluorescence ratio: 0.999 ± 0.034

## GGTAACACCA
  switch fluorescence ratio: 1.015 ± 0.0095

## GGTAACGTAG
  switch fluorescence ratio: 0.991 ± 0.022

## GGTAAGATGG
  switch fluorescence ratio: 0.995 ± 0.032

## GGTAAGTAGG
  switch fluorescence ratio: 1.03 ± 0.042

## GGTAATAAGG
  switch fluorescence ratio: 1.05 ± 0.028

## GGTAATGTTT
  switch fluorescence ratio: 1.01 ± 0.014

## GGTACAGTTT
  switch fluorescence ratio: 0.975 ± 0.019

## GGTACCTTAG
  switch fluorescence ratio: 1.059 ± 0.0087

## GGTACCTTTG
  switch fluorescence ratio: 0.9729 ± 0.009

## GGTACGTTTT
  switch fluorescence ratio: 1.03 ± 0.024

## GGTACTACGG
  switch fluorescence ratio: 1.05 ± 0.017

## GGTACTCATC
  switch fluorescence ratio: 1.02 ± 0.052

## GGTACTTTGT
  switch fluorescence ratio: 1.03 ± 0.039

## GGTAGAAAGG
  switch fluorescence ratio: 1.03 ± 0.093

## GGTAGAGGGA
  switch fluorescence ratio: 0.9783 ± 0.0085

## GGTAGAGGGT
  switch fluorescence ratio: 0.978 ± 0.066

## GGTAGAGGTA
  switch fluorescence ratio: 1.02 ± 0.013

## GGTAGATTCG
  switch fluorescence ratio: 0.994 ± 0.027

## GGTAGATTGG
  switch fluorescence ratio: 0.961 ± 0.015

## GGTAGATTTT
  switch fluorescence ratio: 0.9792 ± 0.003

## GGTAGCAGGG
  switch fluorescence ratio: 1.014 ± 0.0097

## GGTAGCCTGC
  switch fluorescence ratio: 1.02 ± 0.023

## GGTAGCGAAG
  switch fluorescence ratio: 0.97 ± 0.026

## GGTAGCTAAG
  switch fluorescence ratio: 1 ± 0.034

## GGTAGGCAGG
  switch fluorescence ratio: 1 ± 0.021

## GGTAGGGATA
  switch fluorescence ratio: 1.08 ± 0.11

## GGTAGGGGGC
  switch fluorescence ratio: 1.01 ± 0.033

## GGTAGTATCC
  switch fluorescence ratio: 1.02 ± 0.025

## GGTAGTATTT
  switch fluorescence ratio: 0.996 ± 0.028

## GGTAGTGGCT
  switch fluorescence ratio: 0.993 ± 0.01

## GGTAGTGGGC
  switch fluorescence ratio: 1.02 ± 0.034

## GGTATACTTA
  switch fluorescence ratio: 1.04 ± 0.0075

## GGTATAGGGA
  switch fluorescence ratio: 1.01 ± 0.026

## GGTATATCTT
  switch fluorescence ratio: 1.01 ± 0.076

## GGTATATTAA
  switch fluorescence ratio: 1.02 ± 0.023

## GGTATATTAG
  switch fluorescence ratio: 0.99 ± 0.028

## GGTATATTTT
  switch fluorescence ratio: 1.03 ± 0.1

## GGTATCAGTT
  switch fluorescence ratio: 1.0006 ± 0.0002

## GGTATCGCGG
  switch fluorescence ratio: 1 ± 0.023

## GGTATCTGTA
  switch fluorescence ratio: 1 ± 0.023

## GGTATGCAGG
  switch fluorescence ratio: 0.985 ± 0.026

Reference: the supplement of paper PMC10126150
